Reference: patent publication US20240319212A1 (IMMUNDIAGNOSTIK, published 2024)

T1: complex of vitamin D binding protein with 24,25-dihydroxyvitamin D (DBP-24,25VD) (human, UniProt P02774 17-474)
T1 construct: Same protein as m4; 50 nM NT-647-labelled DBP was mixed with 37.8 nM metabolite; also called DBP:24,25(OH)VD
T1 sequence (looked up): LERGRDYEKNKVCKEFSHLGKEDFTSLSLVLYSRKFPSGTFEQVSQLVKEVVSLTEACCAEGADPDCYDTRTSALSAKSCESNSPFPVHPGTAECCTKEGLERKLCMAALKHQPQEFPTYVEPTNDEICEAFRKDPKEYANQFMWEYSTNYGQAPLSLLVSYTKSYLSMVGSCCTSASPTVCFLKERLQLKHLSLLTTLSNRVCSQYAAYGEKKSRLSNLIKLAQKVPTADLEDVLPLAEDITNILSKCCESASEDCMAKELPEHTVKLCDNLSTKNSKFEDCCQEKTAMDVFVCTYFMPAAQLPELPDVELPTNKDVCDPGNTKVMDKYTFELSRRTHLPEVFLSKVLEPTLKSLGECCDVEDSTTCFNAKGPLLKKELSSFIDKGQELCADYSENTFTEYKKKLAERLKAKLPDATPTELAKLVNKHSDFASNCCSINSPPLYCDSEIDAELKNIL

T2: complex of vitamin D binding protein with the 3C-epimer of 25(OH)D3 (human, UniProt P02774 17-474)
T2 construct: Same protein as m4, occupied by the epimer; also called DBP:3-epi-25(OH)D3
T2 sequence (looked up): T1 sequence (looked up)

T3: complex of vitamin D binding protein with 25-hydroxyvitamin D2 (DBP:25(OH)VD2) (human, UniProt P02774 17-474)
T3 construct: Same protein as m4; 50 nM NT-647-labelled DBP was mixed with 37.8 nM metabolite; also called DBP-VD2
T3 sequence (looked up): T1 sequence (looked up)

T4: soluble recombinant megalin M3 fragment (amino acids 2698 to 3192 of human LRP2/megalin, C-terminal 6x His … (human, UniProt P98164 2698-3192))
T4 construct: Expressed in HEK 293 cells and secreted, with the signal peptide removed; It tends to dimerise; also called E2698-R3192
T4 sequence: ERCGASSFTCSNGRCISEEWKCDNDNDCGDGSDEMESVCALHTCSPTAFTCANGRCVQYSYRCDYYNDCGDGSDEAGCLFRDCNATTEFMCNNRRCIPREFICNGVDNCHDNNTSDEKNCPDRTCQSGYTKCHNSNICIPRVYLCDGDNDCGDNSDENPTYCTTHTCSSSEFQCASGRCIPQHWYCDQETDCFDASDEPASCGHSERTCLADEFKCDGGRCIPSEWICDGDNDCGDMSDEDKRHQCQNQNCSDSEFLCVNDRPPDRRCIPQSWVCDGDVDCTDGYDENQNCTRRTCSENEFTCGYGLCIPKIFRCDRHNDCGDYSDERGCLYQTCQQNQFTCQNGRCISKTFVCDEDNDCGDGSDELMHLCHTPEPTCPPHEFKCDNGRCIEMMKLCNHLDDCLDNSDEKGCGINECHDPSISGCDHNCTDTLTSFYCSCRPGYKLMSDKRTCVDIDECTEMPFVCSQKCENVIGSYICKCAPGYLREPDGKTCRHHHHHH

B1: soluble recombinant megalin M2 fragment (amino acids 1024-1429 of human LRP2/megalin, C-terminal 6x His tag) (receptor)
chain: EQCGLFSFPCKNGRCVPNYYLCDGVDDCHDNSDEQLCGTLNNTCSSSAFTCGHGECIPAHWRCDKRNDCVDGSDEHNCPTHAPASCLDTQYTCDNHQCISKNWVCDTDNDCGDGSDEKNCNSTETCQPSQFNCPNHRCIDLSFVCDGDKDCVDGSDEVGCVLNCTASQFKCASGDKCIGVTNRCDGVFDCSDNSDEAGCPTRPPGMCHSDEFQCQEDGICIPNFWECDGHPDCLYGSDEHNACVPKTCPSSYFHCDNGNCIHRAWLCDRDNDCGDMSDEKDCPTQPFRCPSWQWQCLGHNICVNLSVVCDGIFDCPNGTDESPLCNGNSCSDFNGGCTHECVQEPFGAKCLCPLGFLLANDSKTCEDIDECDILGSCSQHCYNMRGSFRCSCDTGYMLESDGRTCKHHHHHH
notes: Expressed in and secreted by HEK cells, with the signal peptide removed; It tends to dimerise and is the fragment most easily dissociated to monomer; also called E1024-K1429
B2: Human RAP (ligand, UniProt P30533 35-357, looked up)
chain: YSREKNQPKPSPKRESGEEFRMEKLNQLWEKAQRLHLPPVRLAELHADLKIQERDELAWKKLKLDGLDEDGEKEARLIRNLNVILAKYGLDGKKDARQVTSNSLSGTQEDGLDDPRLEKLWHKAKTSGKFSGEELDKLWREFLHHKEKVHEYNVLLETLSRTEEIHENVISPSDLSDIKGSVLHSRHTELKEKLRSINQGLDRLRRVSHQGYSTEAEFEEPRVIDLWDLAQSANLTDKELEAFREELKHFEAKIEKHNHYQKQLEIAHEKLRHAESVGDGERVSRSREKHALLEGRTKELGYTVKKHLQDLSGRISRARHNEL
B3: DBP-1,25(OH)VD3 complex (ligand)
chain: T1 sequence (looked up)
modifications: The protein carries the red fluorescent dye NT-647 (positions not stated). 1,25(OH)2 vitamin D3 is bound non-covalently and cannot be written in letters. It is a natural glycoprotein.
notes: also called DBP:1,25(OH)2D3
B4: vitamin D binding protein (DBP) alone, without added vitamin D metabolite (ligand, human, UniProt P02774 17-474, looked up)
chain: T1 sequence (looked up)
notes: also called apoprotein DBP; non-complexed DBP
B5: complex of vitamin D binding protein with 25-hydroxyvitamin D3 (DBP:25(OH)D3) (ligand, human, UniProt P02774 17-474, looked up)
chain: T1 sequence (looked up)
notes: Same protein as m4, occupied by the small molecule 25(OH)D3; Both are treated as this one entry; also called DBP:VD3; DBP/VD3

Assays:
[1] = molecular target: T1, complex of vitamin D binding protein …; test: MST, NT-647-labelled DBP (50 nM) mixed with 24,25VD (37.8 nM), megalin M2 titrated
[2] = molecular target: B5; test: MST, NT-647-labelled DBP (50 nM) with VD3 (50 nM), megalin fragment titrated
[3] = molecular target: T2, complex of vitamin D binding protein …; test: microscale thermophoresis; NT-647-labelled DBP (50 nM) mixed with the vitamin D metabolite (37.8 nM), here 3epi25(OH)VD3; purified megalin M2 titrated
[4] = molecular target: T3, complex of vitamin D binding protein …; test: MST, NT-647-labelled DBP (50 nM) mixed with 25(OH)VD2 (37.8 nM), megalin M2 titrated
[5] = molecular target: B4; test: MST, NT-647-labelled DBP (50 nM), megalin fragment titrated, absence of 25-OH vitamin D3; microscale thermophoresis; NT-647-labelled DBP, purified soluble M2 titrated 0.488-1000 nmol/L; absence of 25-OH vitamin D3
Human Albumin-His-tag = molecular target: T5, Human Albumin-His-tag (human, UniProt P02768 25-609); test: peptide array of megalin M2 region; major binding epitopes of megalin ligands
T5 construct: not shown: His-tag
T5 sequence (P02768 25-609 limits assumed): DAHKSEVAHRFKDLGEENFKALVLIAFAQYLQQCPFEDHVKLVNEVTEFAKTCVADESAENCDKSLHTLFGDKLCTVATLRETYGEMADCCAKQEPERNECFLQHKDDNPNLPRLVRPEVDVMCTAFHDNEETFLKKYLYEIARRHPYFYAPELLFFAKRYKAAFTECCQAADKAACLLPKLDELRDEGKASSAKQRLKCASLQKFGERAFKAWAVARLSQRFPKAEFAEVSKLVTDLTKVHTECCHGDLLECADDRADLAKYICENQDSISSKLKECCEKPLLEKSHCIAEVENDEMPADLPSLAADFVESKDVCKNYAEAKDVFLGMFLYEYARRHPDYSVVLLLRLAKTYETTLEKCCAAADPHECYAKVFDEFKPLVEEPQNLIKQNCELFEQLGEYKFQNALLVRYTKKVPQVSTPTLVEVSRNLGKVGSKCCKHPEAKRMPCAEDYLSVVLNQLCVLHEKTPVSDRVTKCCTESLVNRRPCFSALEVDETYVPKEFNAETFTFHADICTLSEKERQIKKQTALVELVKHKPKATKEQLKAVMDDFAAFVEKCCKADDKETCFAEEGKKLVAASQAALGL

Human C1q = Human C1q (human, UniProt P02745 23-245; P02746 28-253; P02747 29-245); test: as above
Chain of Human C1q (P02745 23-245 limits assumed, chain 1 of 3): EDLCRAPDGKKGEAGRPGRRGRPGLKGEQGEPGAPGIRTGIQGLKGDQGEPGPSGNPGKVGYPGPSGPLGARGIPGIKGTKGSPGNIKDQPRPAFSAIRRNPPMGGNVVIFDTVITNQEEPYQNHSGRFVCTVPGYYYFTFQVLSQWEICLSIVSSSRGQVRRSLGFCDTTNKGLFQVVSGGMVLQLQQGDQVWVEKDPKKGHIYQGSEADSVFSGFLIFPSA
Chain of Human C1q (P02746 28-253 limits assumed, chain 2 of 3): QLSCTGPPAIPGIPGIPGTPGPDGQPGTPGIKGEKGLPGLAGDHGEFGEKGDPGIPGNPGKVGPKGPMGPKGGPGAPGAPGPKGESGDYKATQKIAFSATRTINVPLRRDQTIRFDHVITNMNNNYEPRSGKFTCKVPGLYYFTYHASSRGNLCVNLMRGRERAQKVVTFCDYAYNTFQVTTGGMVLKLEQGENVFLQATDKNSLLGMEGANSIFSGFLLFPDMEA
Chain of Human C1q (P02747 29-245 limits assumed, chain 3 of 3): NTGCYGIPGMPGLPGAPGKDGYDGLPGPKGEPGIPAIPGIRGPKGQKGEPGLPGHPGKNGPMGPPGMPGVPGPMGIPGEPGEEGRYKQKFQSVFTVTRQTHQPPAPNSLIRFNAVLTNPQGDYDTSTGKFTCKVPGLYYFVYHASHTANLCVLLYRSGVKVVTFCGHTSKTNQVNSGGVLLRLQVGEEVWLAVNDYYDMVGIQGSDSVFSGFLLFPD

[6] = molecular target: B5; test: MST, NT-647-labelled DBP (50 nM) mixed with 25(OH)VD3 (37.8 nM), megalin M2 titrated
[7] = molecular target: B1; test: peptide array of megalin M2 region; major binding epitopes of megalin ligands
[8] = molecular target: B1; test: microscale thermophoresis; NT-647-labelled DBP mixed with 1,25(OH)VD3; purified megalin M2 titrated (set-up as in paragraph 103)
[9] = molecular target: T4, soluble recombinant megalin M3 fragment …; test: co-immunoprecipitation with lysate of HEK cells expressing M3; pull-down with anti-His antibody beads; Western blot with anti-DBP antibody

Binder: B1
Kd [1]: 171 nM
Kd [2]: 23.7 nM
Kd [3]: 5.86 nM
Kd [4]: 160 nM
Kd [5]: 134 nM
binding result (Human Albumin-His-tag): binds
binding result (Human C1q): binds
Kd [6]: 33.7 nM

Binder: B2
binding result [7]: binds

Binder: B3
Kd [8]: 18.1 nM

Binder: B4
binding result [9]: no binding (tested: DBP 0,5 µg)

Binder: B5
binding result [9]: no binding (tested: DBP 0,5 µg with VD3 0,2 µg)
